In the supplement of paper PMC10567573 one finds protein stability index data, which are given here for 94 variants.

Sequences and labels used below:
B1: NETO1 (parent)
chain: GFSPIIGRFCGQQNPPVIKSSGRF
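Also: lentivirally expressed fusions sorted by FACS into six bins by GFP to DsRed ratio, PSI derived from sequencing read proportions per bin multiplied by bin number.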

In this data set the parent is B1. Briefly: protein stability index of a GFP-peptide fusion (GPS, HEK-293T) (PSI 1-6); higher = more stable. The following applies: c terminus: a fixed tail appended.
In the case of GFSPIIGRFCGQQNPPVIKSSGQF, the protein stability index came to 1.56.
Under GFSPIIGRFCGQQNPPVIKSSGYF stands 2.6; under GFSPIIGRFCGQQNPPVIKSSGEF, 2.04; under GFSPIIGRFCGQQNPPVIKSSGKF, 2.44.
Under GFSPIIGRFCGQQNPPVIKSSGWF stands 2.26.
With GFSPIIGRFCGQQNPPVIKSSGLF, the protein stability index is 2.35.
Next, GFSPIIGRFCGQQNPPVIKSSGHF: 1.76.
For the variant GFSPIIGRFCGQQNPPVIKSSGVF, the protein stability index is 2.22.
Under GFSPIIGRFCGQQNPPVIKSSGAF stands 1.35; under GFSPIIGRFCGQQNPPVIKSSGGF, 1.67.
Under GFSPIIGRFCGQQNPPVIKSSKRF stands 2.54; under GFSPIIGRFCGQQNPPVIKSSCRF, 1.97; under GFSPIIGRFCGQQNPPVIKSSRRF, 2.19.
Next, GFSPIIGRFCGQQNPPVIKSSVRF: 1.63; GFSPIIGRFCGQQNPPVIKSSYRF: 2.1.
On to GFSPIIGRFCGQQNPPVIKSSHRF, for which the protein stability index was 1.59.
Next, GFSPIIGRFCGQQNPPVIKSSNRF: 2.2; GFSPIIGRFCGQQNPPVIKTSGRF: 1.88; GFSPIIGRFCGQQNPPVIKGSGRF: 1.9.
Under GFSPIIGRFCGQQNPPVIKLSGRF stands 2.59; under GFSPIIGRFCGQQNPPVIKNSGRF, 2.45.
Consider GFSPIIGRFCGQQNPPVIKESGRF, for which the protein stability index came to 2.11.
Under GFSPIIGRFCGQQNPPVIKKSGRF stands 2.65.
Next, GFSPIIGRFCGQQNPPVIKRSGRF: 2.44; GFSPIIGRICGQQNPPVIKSSGRF: 2.45; GFSPIIGRQCGQQNPPVIKSSGRF: 2.38.
Next, GFSPIIGRYCGQQNPPVIKSSGRF: 1.98; GFSPIIGRMCGQQNPPVIKSSGRF: 2.17.
As for GFSPIIGRNCGQQNPPVIKSSGRF, the protein stability index amounted to 2.42.
Under GFSPIIGRVCGQQNPPVIKSSGRF stands 2.66; under GFSPIIGRRCGQQNPPVIKSSGRF, 2.07.
Under GFSPIIGRLCGQQNPPVIKSSGRF stands 2.49.
Under GFSPIIGRCCGQQNPPVIKSSGRF stands 2.06.
Regarding GFSPIIGRWCGQQNPPVIKSSGRF, the protein stability index turned out to be 2.27.
With GFSPIIGRPCGQQNPPVIKSSGRF, the protein stability index was found to be 1.95.
Under GFSPIIGRFCGQQNHPVIKSSGRF stands 2.01.
In the case of GFSPIIGRFCGQQNYPVIKSSGRF, the protein stability index was 2.1.
Next, GFSPIIGRFCGQQNSPVIKSSGRF: 1.93; GFSPIIGRFCGQQNTPVIKSSGRF: 2.04.
Under GFSPIIGRFCGQQNMPVIKSSGRF stands 1.99; under GFSPIIGRFCGQQNGPVIKSSGRF, 2.79; under GFSPIIGRFCGQQAPPVIKSSGRF, 2.25.
Under GFSPIIGRFCGQQWPPVIKSSGRF stands 1.87; under GFSPIIGRFCGQQQPPVIKSSGRF, 3.08; under GFSPIIGRFCGQQLPPVIKSSGRF, 1.66.
On to GFSPIIGRFCGQQPPPVIKSSGRF, for which the protein stability index turned out to be 2.21.
Next, GFSPIIGRFCGQQRPPVIKSSGRF: 2.12; GFSPIIGRFCGQQTPPVIKSSGRF: 1.67; GFSPIIGRFCGQQEPPVIKSSGRF: 2.38.
Next, GFSPIIGRFCGQQMPPVIKSSGRF: 1.8; GFSPIIGRFCGQQYPPVIKSSGRF: 1.99.
Under GFSPIRGRFCGQQNPPVIKSSGRF stands 3.09.
As to GFSPINGRFCGQQNPPVIKSSGRF, the protein stability index was found to be 2.37.
Under GFSPIQGRFCGQQNPPVIKSSGRF stands 2.38; under GFSPIMGRFCGQQNPPVIKSSGRF, 2.05.
Under GFSPIGGRFCGQQNPPVIKSSGRF stands 2.58; under GFSPISGRFCGQQNPPVIKSSGRF, 2.94.
Next, GFSPIEGRFCGQQNPPVIKSSGRF: 3.28; GFSPIYGRFCGQQNPPVIKSSGRF: 1.91; GFSPIIGYFCGQQNPPVIKSSGRF: 1.83.
For GFSPIIGAFCGQQNPPVIKSSGRF, the protein stability index was determined as 2.72.
Next, GFSPIIGGFCGQQNPPVIKSSGRF: 2.16; GFSPIIGTFCGQQNPPVIKSSGRF: 2.18; GFSPIIGWFCGQQNPPVIKSSGRF: 1.93.
Under GFSPIIGQFCGQQNPPVIKSSGRF stands 2.19; under GFSPIIGIFCGQQNPPVIKSSGRF, 2.43; under GFSPIIGFFCGQQNPPVIKSSGRF, 1.62.
Under GFSPIIGRFCGQQNPPNIKSSGRF stands 2.5; under GFSPIIGRFCGQQNPPHIKSSGRF, 2.08.
As for GFSPIIGRFCGQQNPPQIKSSGRF, the protein stability index was determined as 2.52.
Under GFSPIIGRFCGQQNPPTIKSSGRF stands 2.05; under GFSPIIGRFCGQQNPPIIKSSGRF, 2.51.
Under GFSPIIGRFCGQQNPPRIKSSGRF stands 2.23; under GFSPIIGRFCGQQNPPAIKSSGRF, 2.04.
GFSPIIGRFCGQQNPPLIKSSGRF: the protein stability index amounted to 1.66.
Under GFSPIIGRFCGQQNPPVIKSMGRF stands 2.18; under GFSPIIGRFCGQQNPPVIKSEGRF, 2.22.
Under GFSPIIGRFCGQQNPPVIKSTGRF stands 2.36; under GFSPIIGRFCGQQNPPVIKSCGRF, 2.42; under GFSPIIGRFCGQQNPPVIKSKGRF, 2.22.
Next, GFSPIIGRFCGQQNPPVIKSYGRF: 2.36; GFSPIIGRFCGQQNPPVIKSPGRF: 2.25.
With GFSPKIGRFCGQQNPPVIKSSGRF, the protein stability index came out at 2.75.
Under GFSPCIGRFCGQQNPPVIKSSGRF stands 2.12; under GFSPSIGRFCGQQNPPVIKSSGRF, 2.62; under GFSPGIGRFCGQQNPPVIKSSGRF, 2.31.
Next, GFSPYIGRFCGQQNPPVIKSSGRF: 2.36; GFSPQIGRFCGQQNPPVIKSSGRF: 2.52.
Under GFSPIIGRFCGQQNPPVGKSSGRF stands 2.24; under GFSPIIGRFCGQQNPPVPKSSGRF, 2.92.
As for GFSPIIGRFCGQQNPPVSKSSGRF, the protein stability index was 2.65.
Next, GFSPIIGRFCGQQNPPVYKSSGRF: 2.43; GFSPIIGRFCGQQNPPVRKSSGRF: 3.13.
Under GFSPIIGRFCGQQNPPVDKSSGRF stands 2.73.
